Assay results as given in paper PMC9696088, “Alicyclobacillus mali FL18 as a Novel Source of Glycosyl Hydrolases: Characterization of a New Thermophilic β-Xylosidase Tolerant to Monosaccharides” (International Journal of Molecular Sciences, 2022).

Tests used:
[1] = molecular target: AmβXyl, β-xylosidase (GH3) from Alicyclobacillus mali FL18 (Alicyclobacillus mali FL18); test: SEC-MALS; size-exclusion chromatography (S200 16/60) with triple-angle light scattering and QELS; 500 μg loaded; 100 mM NaCl, 25 mM sodium phosphate pH 7.5, 1 mM DTT; 0.5 mL/min
[2] = substrate: O=[N+]([O-])c1ccc(O[C@@H]2OC[C@@H](O)[C@H](O)[C@H]2O)cc1; test: pNP release, A405 nm, Michaelis-Menten fit (GraphPad Prism); assay type: biochemical, Alicyclobacillus mali (ex Roth et al. 2021); details: 50 mM sodium citrate pH 5.6, 1 mM DTT, 80 °C, substrate 0.1-8.0 mM
Description: (§1) pNP release, A405 nm, Michaelis-Menten fit (GraphPad Prism) on AmβXyl

[3] = substrate: O=[N+]([O-])c1ccc(O[C@@H]2O[C@@H](CO)[C@H](O)[C@H]2O)cc1; test: as above; assay type: biochemical, Alicyclobacillus mali (ex Roth et al. 2021); details: 50 mM sodium citrate pH 5.6, 1 mM DTT, 80 °C, substrate 0.1-8.0 mM
Description: as §1

stoichiometry N [1]	Molecule	Km [2] [mM]	kcat [2] [s⁻¹]	kcat/Km [2] [M⁻¹ s⁻¹]	Km [3] [mM]	kcat [3] [s⁻¹]	kcat/Km [3] [M⁻¹ s⁻¹]
2	AmβXyl, β-xylosidase (GH3) from Alicyclobacillus mali FL18 (enzyme)	–	–	–	–	–	–
–	AmβXyl (Alicyclobacillus mali (ex Roth et al. 2021)) (protein, synthetic codon-optimised gene in pET-30a(+) NcoI/HindIII, N-terminal His-tag; E. coli BL21 (DE3) RIL; ~89 kDa on SDS-PAGE, dimer ~177 kDa) MYLDPAQSVDARVDALLADMTLEEKVAQLTSIWAFEILDDLRFSAEKAAAVLGQGIGQVTRIGGATNLDPPDVARLANQIQRYLRDHTRLGIPALIHEESCSGYMAKGATCFPQTIGIASTWDVDLAQRIGAIIRDQMRAVGARQALAPLLDVARDPRWGRVEETFGEDPYLVAQMGIAYVRGLQGEDLSQGVMATGKHFVGYGASEGGMNWAPAHIPERELREVYLFPFEAAVREAGLGAIMPGYHELDGVPCHDNPGLLRETLRGRWGFQGLVVSDYFAVNQLFEYHQVARDKAEAAALAVRAGVDVELPTRDVYGKPLIEAVARGLVSVAEIDELVRRVLTWKFRLGLFDHPFVDEGAAIAVFDNAEQRKVAREAAEKSLVLLKNDGLLPLAPRGTIAVIGPNAHTTRNLVGDYAYPCHIESLLEQSEDNVFQTPLPSGVKHVDEFIPMRTILEAIGHRVGSEAQVVYAKGCDVLEGEDADLDEAVALAAQSDVAVVVVGDRAGLTDACTTGESRDRATLSLIGRQEELVRRVLATGTKTVVVLVSGRPLAIPDIAERANAVLEAWLPGEEGAEAVAAVLFGDVNPSGKLPVTIPRSVGQVPIYYGHKPSGGRSHWKGAYVDESNLPLYPFGHGLSYTAFEYRDLTLSASELGVHGEIEVACVIENVGARAGEEVVQLYARDVAADVTRPVKVLCGFARVPLAPGEKARVRFRVSAHQFGFYNREMRYVVEPGEIEIMVGASSEDIRLRGMVRIHGAMTEIEHEKVYQSAVNVERM	0.52	1610	3.09e+06	10.56	2400	227000
